# Data taken from patent US20230036928A1 (Sanofi, published 2023).
# T1: TGF-β2
# T1 sequence (P61812 303-414, species assumed, looked up): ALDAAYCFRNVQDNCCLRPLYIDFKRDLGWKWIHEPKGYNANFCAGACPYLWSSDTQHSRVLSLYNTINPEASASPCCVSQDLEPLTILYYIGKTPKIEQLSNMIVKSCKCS
# B1: Ab1 (antibody, human IgG4 S228P, kappa, V domains shown)
# VH: QVQLVQSGAEVKKPGSSVKVSCKASGYTFSSNVISWVRQAPGQGLEWMGGVIPIVDIANYAQRFKGRVTITADESTSTTYMELSSLRSEDTAVYYCASTLGLVLDAMDYWGQGTLVTVSS
# VL: ETVLTQSPGTLSLSPGERATLSCRASQSLGSSYLAWYQQKPGQAPRLLIYGASSRAPGIPDRFSGSGSGTDFTLTISRLEPEDFAVYYCQQYADSPITFGQGTRLEIKR
# Molecular target: T1, TGF-β2
# Test: cell-based or functional assay
binder,measurement,value
B1,relative potency (EC50 of the reference divided by EC50 of the test sample) in mink lung cell proliferation assay with PrestoBlue read-out,~1 ratio (relative potency)
